Measurements from US7547662 (KIMBERLY CLARK WORLDWIDE, dated 2009).

Assays:
[1] = molecular target: T1, Bovine trypsin (Sigma Chemical Co.) (bovine, UniProt P00760 24-246); experiment: ITC, binding agent injected into bovine trypsin, 293 K
T1 construct: Unlabelled in ITC; Oregon Green labelled in the library screening assay; also called bovine pancreatic trypsin
Method: (§1) Isothermal titration calorimetry (ITC) was performed with a VP-ITC instrument from MicroCal, Inc. Titrations were carried out by injecting 5 µL of a binding agent (at concentration ranges from 0.5 mM to 1.0 mM) into the 1.4 mL stirred reaction cell. Bovine trypsin (Sigma Chemical Co.) ranged in concentration from 10 to 30 μM in the cell. Both the inhibitor and the enzyme were in 20 mM sodium cacodylate (pH 6.9), 40 mM NaCl. Titrations were conducted at 20° C. Typical experimental conditions for the titrations were a 10 second injection period followed by a 240 second delay between injections for a total of 40 injections. Blank titrations of binding agent into buffer were performed in order to correct for heats of dilution and mixing.
(§2) The ability of three binding agents (SEQ ID NO:4, SEQ ID NO:33 and 35) was tested to ascertain whether they could effectively bind bovine trypsin. Binding was measured by isothermal titration calorimetry (ITC).
Figure 9: FIG. 9 is a graph illustrating the binding between the computer-generated loop i variant and bovine pancreatic trypsin as analyzed by ITC analysis. Binding reagents and trypsin were dialyzed into 20 mM sodium cacodylate (pH 6.9), 40 mM NaCl. The binding reagent was at a concentration of 1 mM and trypsin was used in the calorimeter cell at a concentration of 20 μM. The temperature was maintained at 20° C. 40 injections of 5 μL each were employed with a 240 second re-equilibrium time between injections.

[2] = molecular target: T1, Bovine trypsin (Sigma Chemical Co.); experiment: ITC, binding agent injected into bovine trypsin in the cell, 20 C
Method: as §1, §2

T1 sequence (P00760 24-246): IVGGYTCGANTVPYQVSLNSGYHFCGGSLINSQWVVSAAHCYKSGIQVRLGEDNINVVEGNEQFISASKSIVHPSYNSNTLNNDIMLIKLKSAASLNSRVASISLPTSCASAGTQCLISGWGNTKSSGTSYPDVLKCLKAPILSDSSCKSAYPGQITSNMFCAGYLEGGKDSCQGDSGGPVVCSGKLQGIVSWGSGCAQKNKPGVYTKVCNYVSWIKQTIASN

Row | Ka [1] | Stoichiometry [1] | ΔS [1] | binding result [2] | Binder
1 | 622000 M⁻¹ | 1.02 | -96.6 cal mol^-1 K^-1 |  | Loop i variant from computer search (parental binding agent with loop i ITAVCHK, SEQ ID NO:35) (designed binder, The protein was then made, expressed and purified, and tested by ITC; also called Loop i Variant Computer; computer-generated loop i variant; not shown: C-terminal hexa-histidine tag added by the vector construct) MDVQLQASGGGSVQAGGSLRLSCAASITAVCHKCAGWFRQAPGKEREGVAAINAGAAGTSYADSVKGRFTISQLAGAANVYLLMNSLEPEDTAIYYCAAGHAGAAGAATCGHGLSTAGAAGAPWGQGTQVTVSS
2 | 1.65e+06 M⁻¹ | 0.99 | -102 cal mol^-1 K^-1 |  | Loop i variant from library screening (parental binding agent with loop i RYLRYPS, SEQ ID NO:33) (designed binder, The clone came from a library in which loops i to v were randomised; also called Loop i variant Screening; Biological Screen; not shown: C-terminal hexa-histidine tag added by the vector construct) MDVQLQASGGGSVQAGGSLRLSCAASRYLRYPSCAGWFRQAPGKEREGVAAINAGAAGTSYADSVKGRFTISQLAGAANVYLLMNSLEPEDTAIYYCAAGHAGAAGAATCGHGLSTAGAAGAPWGQGTQVTVSS
3 |  |  |  | no binding | Parental binding agent (generic binding agent, SEQ ID NO:4, Ala/Gly loops) (designed binder, Camelid VHH-derived beta barrel scaffold, all five loops Ala/Gly; Expressed in E. coli as a monomeric C-terminal His-Tag fusion; not shown: C-terminal hexa-histidine tag added by the vector construct) MDVQLQASGGGSVQAGGSLRLSCAASAGAAGAACAGWFRQAPGKEREGVAAINAGAAGTSYADSVKGRFTISQLAGAANVYLLMNSLEPEDTAIYYCAAGHAGAAGAATCGHGLSTAGAAGAPWGQGTQVTVSS
